Measured values reported in US20190300590A1 (PROTAGONIST THERAPEUTICS, published 2019).
Where two headings read alike, the source gives them in different places. *1 amine or outer side, *2 acyl side, *3 side chain or, on linkers, in order; H or OH if unused. Bridges are numbered along the chain shown (N, C = ends). Primed or numbered codes have the meaning given here. [ ]: non-standard residue; d: D form. Phe(4-OMe)(3) = O-methyl-L-tyrosine (4-methoxy-L-phenylalanine), COc1ccc(C[C@H](N[*:1])C(=O)[*:2])cc1; Phe(4-OMe) = 4-methoxy-L-phenylalanine (O-methyl-L-tyrosine), COc1ccc(C[C@H](N[*:1])C(=O)[*:2])cc1; Phe(4-OMe)(5) = O-methyl-L-tyrosine (4-methoxy-Phe), COc1ccc(C[C@H](N[*:1])C(=O)[*:2])cc1; Phe(4-OMe)(4) = O-methyl-L-tyrosine, COc1ccc(C[C@H](N[*:1])C(=O)[*:2])cc1; Phe(4-guanidino) = N=C(N)Nc1ccc(C[C@H](N)C(=O)O)cc1; Phe(4-N3) = [N-]=[N+]=Nc1ccc(C[C@H](N)C(=O)O)cc1; Phe(3,4-Cl2) = N[C@@H](Cc1ccc(Cl)c(Cl)c1)C(=O)O; Phe(4-CONH2) = NC(=O)c1ccc(C[C@H](N)C(=O)O)cc1; Tyr(Ph) = N[C@@H](Cc1ccc(Oc2ccccc2)cc1)C(=O)O; Phe(4-Br) = N[C@@H](Cc1ccc(Br)cc1)C(=O)O; Phe(4-NH2) = Nc1ccc(C[C@H](N)C(=O)O)cc1; 1Nal = N[C@@H](Cc1cccc2ccccc12)C(=O)O; 2Nal = N[C@@H](Cc1ccc2ccccc2c1)C(=O)O; AEF = NCCOc1ccc(C[C@H](N)C(=O)O)cc1; αMeK = C[C@](N)(CCCCN)C(=O)O; Orn = NCCC[C@H](N)C(=O)O; Abu = CC[C@H](N)C(=O)O; Dap = NC[C@H](N)C(=O)O

T1: IL-23R on human cells (IL-23R-expressing DB cells; human NK cells) (human, UniProt Q5VWK5 24-629)
T1 sequence (looked up): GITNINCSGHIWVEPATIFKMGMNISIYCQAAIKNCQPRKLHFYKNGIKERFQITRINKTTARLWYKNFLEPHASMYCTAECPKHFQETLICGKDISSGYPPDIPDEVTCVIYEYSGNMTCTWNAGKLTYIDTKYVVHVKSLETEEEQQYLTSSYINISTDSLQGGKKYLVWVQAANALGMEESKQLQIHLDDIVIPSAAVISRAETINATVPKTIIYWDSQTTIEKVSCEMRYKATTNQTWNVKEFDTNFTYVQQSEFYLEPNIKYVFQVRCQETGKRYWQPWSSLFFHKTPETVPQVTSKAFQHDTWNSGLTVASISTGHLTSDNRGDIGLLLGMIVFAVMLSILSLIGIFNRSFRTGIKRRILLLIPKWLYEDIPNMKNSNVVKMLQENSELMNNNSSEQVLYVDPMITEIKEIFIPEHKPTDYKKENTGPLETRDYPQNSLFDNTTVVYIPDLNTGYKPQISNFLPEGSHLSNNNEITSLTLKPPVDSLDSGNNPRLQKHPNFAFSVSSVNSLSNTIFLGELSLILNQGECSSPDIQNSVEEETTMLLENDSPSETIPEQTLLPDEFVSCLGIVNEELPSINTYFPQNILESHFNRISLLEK

T2: IL23R_huFC (human, UniProt Q5VWK5 24-353)
T2 sequence (looked up): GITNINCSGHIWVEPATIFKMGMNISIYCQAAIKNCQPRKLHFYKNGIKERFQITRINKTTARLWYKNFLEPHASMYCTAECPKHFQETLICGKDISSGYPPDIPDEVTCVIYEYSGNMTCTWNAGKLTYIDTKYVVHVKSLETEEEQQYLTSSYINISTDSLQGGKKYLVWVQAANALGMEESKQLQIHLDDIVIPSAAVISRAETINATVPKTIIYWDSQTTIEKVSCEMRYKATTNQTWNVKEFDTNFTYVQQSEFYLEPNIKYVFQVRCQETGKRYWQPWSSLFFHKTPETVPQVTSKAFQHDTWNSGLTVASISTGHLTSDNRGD


Tests used:
[1] = molecular target: T1, IL-23R on human cells …; experiment: cell-based or functional assay
[2] = molecular target: Rat IL-23R_huFC (rat); experiment: rat ELISA vs IL-23
[3] = molecular target: T2, IL23R_huFC; experiment: human ELISA vs IL-23
[4] = molecular target: T2, IL23R_huFC; experiment: human ELISA vs IL-23; remark: listed apart in the source

Binder	IC50 [2] [nM]	IC50 [4] [nM]	further results
Ac-[Abu]QTWQC[Phe(4-OMe)(3)][2Nal][αMeK]K(Ac)NGE-NH2 (thioether 1-6) [Ac-Cyclo-[[Abu]-QTWQC]-[Phe(4-OMe)]-[2-Nal][α-MeLys]-[Lys(Ac)]-NGE-NH2]	25 to 100		pStat3 HTRF IC50 [1]: < 10 nM; IC50 [3]: 25 to 100 nM
Ac-[Abu]QTWQC[Phe(4-CONH2)][2Nal][αMeK]K(Ac)NG-NH2 (thioether 1-6) [Ac-Cyclo-[[Abu]-QTWQC]-[Phe(4-CONH2)]-[2-Nal][α-MeLys]-[Lys(Ac)]NG-NH2]	25 to 100		
Ac-[Abu]QTWQC[Phe(3,4-Cl2)][2Nal][αMeK]K(Ac)NG-NH2 (thioether 1-6) [Ac-Cyclo-[[Abu]-QTWQC]-Phe(3,4-Cl2)[2-Nal][α-MeLys]-Lys(Ac)]NG-NH2]		100 to 1000	
Ac-[Abu]QTWQC[Phe(4-Br)]W[αMeK]ENG-NH2 (thioether 1-6) [Ac-Cyclo-[[Abu]-QTWQC]-[Phe(4-Br)] W-[α-MeLys]-ENG-NH2]	25 to 100		
Ac-[Abu]QTWQC[2Nal][2Nal][αMeK]K(Ac)NG-NH2 (thioether 1-6) [Ac-Cyclo-[[Abu]-QTWQC]-[2-Nal]-[2-Nal]-[α-MeLys]-[Lys(Ac)]-NG-NH2]	25 to 100		IC50 [3]: 25 to 100 nM
Ac-[Abu]QTWQC[2Nal][2Nal][αMeK]ENG-NH2 (thioether 1-6) [Ac-Cyclo-[[Abu]-QTWQC]-[2-Nal]-[2-Nal]-[α-MeLys]-ENG-NH2]	25 to 100		IC50 [3]: 25 to 100 nM
Ac-[Abu]QT[2Nal]QC[Phe(4-OMe)(4)][2Nal][αMeK]K(Ac)NG-NH2 (thioether 1-6) [Ac-Cyclo-[[Abu]-QT-[2-Nal]-QC]-[Phe(4-OMe)]-[2-Nal]-[α-MeLys]-[Lys(Ac)]-NG-NH2]		100 to 1000	
XQTXQCFXKENG (as bracketed in name; thioether cyclo)		100 to 1000	
Ac-[Abu]QT[1Nal]QC[Phe(4-OMe)(4)][2Nal][αMeK]K(Ac)NG-NH2 (thioether 1-6) [Ac-Cyclo-[[Abu]-QT-[1-Nal]-QC]-[Phe(4-OMe)]-[2-Nal]-[α-MeLys]-[Lys(Ac)]-NG-NH2]		100 to 1000	
Ac-[Abu][Dap]TWQC[AEF][AEF][αMeK]K(Ac)NG-NH2 (thioether 1-6)		100 to 1000	

More lines, main results first:

IC50 [2] [nM]	IC50 [4] [nM]	Binder	further results
25 to 100		Ac-[Abu]STWQC[Phe(4-OMe)(5)][2Nal][αMeK]K(Ac)NGE-NH2 (thioether 1-6) [Ac-Cyclo-[[Abu]-STWQC]-[Phe(4-OMe)]-[2-Nal][α-MeLys]-[Lys(Ac)]-NGE-NH2]	IC50 [3]: 25 to 100 nM
	100 to 1000	Ac-[Abu]QTWQC[AEF]W[Orn][Dap]NG-NH2 (thioether 1-6) [Ac-Cyclo-[[Abu]-QTWQC]-[Phe[4-(2-aminoethoxy)]]-W-[Orn]-[Dap]-NG-NH2]	
	100 to 1000	Ac-[Abu]QTWQC[AEF]W[Orn][Dap](Ac)NG-NH2 (thioether 1-6) [Ac-Cyclo-[[Abu]-QTWQC]-[Phe[4-(2-aminoethoxy)]]-W-[Orn]-[Dap(Ac)]-NG-NH2]	
	100 to 1000	Ac-[Abu]STWQC[AEF][2Nal][αMeK]KNGGE-NH2 (thioether 1-6) [Ac-Cyclo-[[Abu]-STWQC]-[Phe[4-(2-aminoethoxy)]]-[2-Nal]-[α-MeLys]-KNGGE-NH2]	
	100 to 1000	Ac-[Abu]QTWQC[Tyr(Ph)][2Nal][αMeK]K(Ac)NG-NH2 (thioether 1-6) [Ac-Cyclo-[[Abu]-QTWQC]-[Phe(4-Phenoxy)]-[2-Nal][α-MeLys]-[Lys(Ac)]-NG-NH2]	
25 to 100		Ac-[Abu]QTWQC[Phe(4-guanidino)]W[αMeK]ENG-NH2 (thioether 1-6) [Ac-Cyclo-[[Abu]-QTWQC]-[Phe(4-guanidino)]-W-[α-MeLys]-ENG-NH2]	
25 to 100		Ac-[Abu]QTWQC[Tyr(Ph)]W[αMeK]ENG-NH2 (thioether 1-6) [Ac-Cyclo-[[Abu]-QTWQC]-[Phe(4-phenoxy)]-W-[α-MeLys]-ENG-NH2]	
25 to 100		Ac-[Abu]QTWQC[Phe(4-NH2)]W[αMeK]ENG-NH2 (thioether 1-6) [Ac-Cyclo-[[Abu]-QTWQC]-[Phe(4-NH2)]-W-[α-MeLys]-ENG-NH2]	
25 to 100		Ac-[Abu]QTWQC[Phe(4-N3)][2Nal][αMeK]K(Ac)NG-NH2 (thioether 1-6) [Ac-Cyclo-[[Abu]-QTWQC]-[Phe-4-N3]-[2-Nal]-[α-MeLys]-[Lys(Ac)]-NG-NH2]	
	100 to 1000	Ac-[Abu]QTWQC[Phe(4-OMe)]W[αMeK]K(Ac)NGE-NH2 (thioether 1-6) [Ac-Cyclo-[[Abu]-QTWQC]-[Phe(4-OMe)]-W-[α-MeLys]-[Lys(Ac)]-NGE-NH2]	
	100 to 1000	Ac-[Abu][Dap]TWQC[AEF][Tyr(Ph)][αMeK]K(Ac)NG-NH2 (thioether 1-6) [Ac-Cyclo-[[Abu]-[Dap]-TWQC]-[Phe[4-(2-aminoethoxy)]]-[Phe(4-Phenoxy)]-[α-MeLys]-[Lys(Ac)]-NG-NH2]	
